According to article PMC4706845:

What was measured:
[1] = biological target: Vac14 from pig brain cytosol (UniProt F1S3E8); experiment: proteo-liposome recruitment, western blot band quantification; details: 2 % input bar shown for reference, parent: est. 21, read off a plot
[2] = biological target: PIKfyve from pig brain cytosol; experiment: as above; details: 2 % input bar shown for reference, parent: est. 38, read off a plot

UniProt F1S3E8, sequence (F1S3E8 entry or part of it): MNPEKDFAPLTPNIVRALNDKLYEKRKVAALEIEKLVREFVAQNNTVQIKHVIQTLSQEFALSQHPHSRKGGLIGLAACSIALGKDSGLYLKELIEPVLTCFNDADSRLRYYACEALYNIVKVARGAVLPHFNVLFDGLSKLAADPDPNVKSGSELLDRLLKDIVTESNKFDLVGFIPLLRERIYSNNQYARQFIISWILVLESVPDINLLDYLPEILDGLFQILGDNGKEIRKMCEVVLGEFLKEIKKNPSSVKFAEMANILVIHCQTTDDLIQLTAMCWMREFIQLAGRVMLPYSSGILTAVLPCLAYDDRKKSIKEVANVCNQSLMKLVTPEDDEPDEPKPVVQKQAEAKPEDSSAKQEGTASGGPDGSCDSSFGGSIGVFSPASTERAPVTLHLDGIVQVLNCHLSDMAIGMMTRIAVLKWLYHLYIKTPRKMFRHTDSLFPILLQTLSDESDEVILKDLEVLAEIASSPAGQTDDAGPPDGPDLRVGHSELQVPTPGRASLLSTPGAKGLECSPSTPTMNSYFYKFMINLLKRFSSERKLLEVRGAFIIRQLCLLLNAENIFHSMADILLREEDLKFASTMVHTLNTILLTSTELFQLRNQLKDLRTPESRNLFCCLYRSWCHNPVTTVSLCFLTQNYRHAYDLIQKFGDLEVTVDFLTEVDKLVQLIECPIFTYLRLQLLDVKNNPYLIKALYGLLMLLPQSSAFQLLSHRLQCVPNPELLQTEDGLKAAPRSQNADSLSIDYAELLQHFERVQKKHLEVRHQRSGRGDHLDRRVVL

## APP intracellular domain (AICD), full length AICD N36A; P37A
[1]
  response: 3.5 a.u.
[2]
  response: 8.5 a.u.

## APP intracellular domain (AICD), full length AICD T38A; Y39A
[1]
  response: 0.7 a.u.
[2]
  response: 3 a.u.

## APP intracellular domain (AICD), full length AICD Y34A; E35A
[1]
  response: 1 a.u.
[2]
  response: 2.5 a.u.
